B1: Mab 205.10.1 (antibody, V domains shown)
VH: QVQLVQSGAEVKKPGASVKVSCKASGYTFRSSYISWVRQAPGQGLEWMGWIYAGTGSPSYNQKLQGRVTMTTDTSTSTAYMELRSLRSDDTAVYYCARHRDYYSNSLTYWGQGTLVTVSS
VL: DIVMTQSPDSLAVSLGERATINCKSSQSLLNSGNQKNYLTWYQQKPGQPPKLLIYWASTRESGVPDRFSGSGSGTDFTLTISSLQAEDVAVYYCQSDYSYPYTFGQGTKLEIK
notes: Humanized anti-HER3 antibody; Only variable domains are tied to it
B2: Mab 205.10.3 (antibody, V domains shown)
VH: QVQLVQSGAEVKKPGASVKVSCKASGYTFRSSYISWVRQAPGQGLEWMGWIYAGTGSPSYNQKLQGRVTMTTDTSTSTAYMELRSLRSDDTAVYYCARHRDYYSNSLTYWGQGTLVTVSS
VL: DIVMTQSPDSLAVSLGERATINCKSSQSLLNSGNQKNYLTWYQQKPGQPPKLLIYWASTRESGVPDRFSGSGSGTDFTLTISSLQAEDVSIYYCQSDYSYPYTFGQGTKLEIK
notes: as for B1

Biological target: T1, Soluble human HER3 extracellular domain fused to Streptavidin Binding Protein (SBP) (human, UniProt P21860 20-643)
T1 construct: Order of the parts follows the printed name SBP-HER3 and is not otherwise stated; Used as HEK293 supernatant captured on streptavidin plates; also called SBP-HER3
Assay: ELISA, SBP-HER3 ECD captured on streptavidin plate; antibody concentration read from HER3 binding
Protocol: Soluble human HER3 extracellular domain fused to Streptavidin Binding Protein (SBP) was captured on a sreptavidine plate. […] For the standard coating, SBP-HER3 containing HEK293 supernatant was diluted (between 1:15 and 1:40) and incubated overnight at 2-80 C (25 μl per well). Intensive washing of the microtiter plate is necessary to remove remaining unbound SBP-HER3.
Antibodies according to the invention antibody were tested either undiluted or using a 12-step-dilution. 12.5 μl per well of each sample was incubated for 90 min at room temperature.

| Binder | hu_HER3-ECD-ELISA c(µg/ml) [µg/mL] |
| --- | --- |
| B1 | 583 |
| B2 | 505 |

Reference: patent publication US20140227255A1 (Hoffmann-La Roche, published 2014)
